Data published in US20190361034A1.
One block for each substance: values may come before it.

Key:
[1] = molecular target: MHC class II molecules on MHC class II-expressing Raji cells (human); experiment: transfer cell ELISA, Raji cells; 0.977 ng/ml; plate row C
[2] = molecular target: MHC class II molecules on MHC class II-expressing Raji cells (human); experiment: transfer cell ELISA, Raji cells; 31.25 ng/ml; plate row D
[3] = molecular target: MHC class II molecules on MHC class II-expressing Raji cells (human); experiment: transfer cell ELISA, Raji cells; 7.813 ng/ml; plate row D
[4] = molecular target: MHC class II molecules on MHC class II-expressing Raji cells (human); experiment: direct ELISA, plate-immobilised Raji cells; 5% BSA, 10,000 cells; 125 ng/ml
[5] = molecular target: MHC class II molecules on MHC class II-expressing Raji cells (human); experiment: direct ELISA, plate-immobilised Raji cells; 5% BSA, 10,000 cells; 250 ng/ml
[6] = molecular target: MHC class II molecules on MHC class II-expressing Raji cells (human); experiment: direct ELISA, plate-immobilised Raji cells; 5% BSA, 5,000 cells; 1000 ng/ml
[7] = molecular target: MHC class II molecules on MHC class II-expressing Raji cells (human); experiment: direct ELISA, plate-immobilised Raji cells; 5% BSA, 5,000 cells; 62.5 ng/ml
[8] = molecular target: MHC class II molecules on MHC class II-expressing Raji cells (human); experiment: direct ELISA, plate-immobilised Raji cells; 10% FBS, 10,000 cells; 125 ng/ml
[9] = molecular target: MHC class II molecules on MHC class II-expressing Raji cells (human); experiment: direct ELISA, plate-immobilised Raji cells; 10% FBS, 2,500 cells; 1000 ng/ml
[10] = molecular target: MHC class II molecules on MHC class II-expressing Raji cells (human); experiment: direct ELISA, plate-immobilised Raji cells; 10% FBS, 5,000 cells; 62.5 ng/ml
[11] = molecular target: MHC class II molecules on MHC class II-expressing Raji cells (human); experiment: direct ELISA, plate-immobilised Raji cells; 5% BSA, 2,500 cells; 31.25 ng/ml
[12] = molecular target: MHC class II molecules on MHC class II-expressing Raji cells (human); experiment: direct ELISA, plate-immobilised Raji cells; 10% FBS, 2,500 cells; 31.25 ng/ml
[13] = molecular target: MHC class II molecules on MHC class II-expressing Raji cells (human); experiment: direct ELISA, plate-immobilised Raji cells; 5% BSA, 10,000 cells; 31.25 ng/ml
[14] = molecular target: MHC class II molecules on MHC class II-expressing Raji cells (human); experiment: direct ELISA, plate-immobilised Raji cells; 5% BSA, 2,500 cells; 15.625 ng/ml
[15] = molecular target: MHC class II molecules on MHC class II-expressing Raji cells (human); experiment: direct ELISA, plate-immobilised Raji cells; 10% FBS, 2,500 cells; 15.625 ng/ml
[16] = molecular target: MHC class II molecules on MHC class II-expressing Raji cells (human); experiment: direct ELISA, plate-immobilised Raji cells; 10% FBS, 5,000 cells; 15.625 ng/ml
[17] = molecular target: MHC class II molecules on MHC class II-expressing Raji cells (human); experiment: direct ELISA, plate-immobilised Raji cells; 5% BSA, 10,000 cells; 15.625 ng/ml
[18] = molecular target: MHC class II molecules on MHC class II-expressing Raji cells (human); experiment: direct ELISA, plate-immobilised Raji cells; 10% FBS, 10,000 cells; 15.625 ng/ml
[19] = molecular target: MHC class II molecules on MHC class II-expressing Raji cells (human); experiment: transfer cell ELISA, Raji cells; 500 ng/ml
[20] = molecular target: MHC class II molecules on MHC class II-expressing Raji cells (human); experiment: transfer cell ELISA, Raji cells; 0.977 ng/ml
[21] = molecular target: MHC class II molecules on MHC class II-expressing Raji cells (human); experiment: transfer cell ELISA, Raji cells; 1.953 ng/ml
[22] = molecular target: MHC class II molecules on MHC class II-expressing Raji cells (human); experiment: transfer cell ELISA, Raji cells; 15.63 ng/ml
[23] = molecular target: MHC class II molecules on MHC class II-expressing Raji cells (human); experiment: transfer cell ELISA, Raji cells; 7.813 ng/ml
[24] = molecular target: MHC class II molecules on MHC class II-expressing Raji cells (human); experiment: direct ELISA, plate-immobilised Raji cells; 3% gelatin, 2,500 cells; 125 ng/ml
[25] = molecular target: MHC class II molecules on MHC class II-expressing Raji cells (human); experiment: direct ELISA, plate-immobilised Raji cells; 3% gelatin, 2,500 cells; 500 ng/ml
[26] = molecular target: MHC class II molecules on MHC class II-expressing Raji cells (human); experiment: direct ELISA, plate-immobilised Raji cells; 3% gelatin, 10,000 cells; 500 ng/ml
[27] = molecular target: MHC class II molecules on MHC class II-expressing Raji cells (human); experiment: direct ELISA, plate-immobilised Raji cells; 3% gelatin, 2,500 cells; 1000 ng/ml
[28] = molecular target: MHC class II molecules on MHC class II-expressing Raji cells (human); experiment: direct ELISA, plate-immobilised Raji cells; 0.5% Casein, 2,500 cells; 62.5 ng/ml
[29] = molecular target: MHC class II molecules on MHC class II-expressing Raji cells (human); experiment: direct ELISA, plate-immobilised Raji cells; 3% gelatin, 10,000 cells; 62.5 ng/ml
[30] = molecular target: MHC class II molecules on MHC class II-expressing Raji cells (human); experiment: direct ELISA, plate-immobilised Raji cells; 3% gelatin, 2,500 cells; 31.25 ng/ml
[31] = molecular target: MHC class II molecules on MHC class II-expressing Raji cells (human); experiment: direct ELISA, plate-immobilised Raji cells; 3% gelatin, 5,000 cells; 31.25 ng/ml
[32] = molecular target: MHC class II molecules on MHC class II-expressing Raji cells (human); experiment: direct ELISA, plate-immobilised Raji cells; 3% gelatin, 10,000 cells; 15.625 ng/ml
[33] = molecular target: MHC class II molecules on MHC class II-expressing Raji cells (human); experiment: BLI; IMP321 sample at 125% binding potency, Raji cells in solution; relative to reference standard

OD (ELISA signal) [1]: 0.01 OD
OD (ELISA signal) [2]: 0.049 OD
OD (ELISA signal) [3]: 0.02 OD
OD (ELISA signal) [4]: 0.395 OD
OD (ELISA signal) [5]: 0.91 OD
OD (ELISA signal) [6]: 1.81 OD
OD (ELISA signal) [7]: 0.303 OD
OD (ELISA signal) [8]: 0.377 OD
OD (ELISA signal) [9]: 2.39 OD
OD (ELISA signal) [10]: 0.28 OD
OD (ELISA signal) [11]: 0.304 OD
OD (ELISA signal) [12]: 0.294 OD
OD (ELISA signal) [13]: 0.31 OD
OD (ELISA signal) [14]: 0.281 OD
OD (ELISA signal) [15]: 0.27 OD
OD (ELISA signal) [16]: 0.327 OD
OD (ELISA signal) [17]: 0.366 OD
OD (ELISA signal) [18]: 0.333 OD
Substance: IMP321 treated with Peptide-N-Glycosidase F (PNGase F) (Fc fusion)

OD (ELISA signal) [19]: 1.81 OD
OD (ELISA signal) [20]: 0.018 OD
OD (ELISA signal) [21]: 0.026 OD
OD (ELISA signal) [22]: 0.098 OD
OD (ELISA signal) [23]: 0.053 OD
OD (ELISA signal) [24]: 0.77 OD
OD (ELISA signal) [25]: 2.56 OD
OD (ELISA signal) [26]: 1.55 OD
OD (ELISA signal) [27]: 2.6 OD
OD (ELISA signal) [28]: 0.135 OD
OD (ELISA signal) [29]: 0.417 OD
OD (ELISA signal) [30]: 0.303 OD
OD (ELISA signal) [31]: 0.359 OD
OD (ELISA signal) [32]: 0.361 OD
Potency determined by BLI assay [33]: 135%
Substance: IMP321, recombinant soluble human LAG-3Ig fusion protein (Fc fusion)
